In US10766960 (dated 2020) one finds Kd data, which are given here for 4 molecules.

Holding throughout (experiment): SPR
(In SPR one partner is held on a chip, and binding of the other changes the refractive index at the surface.)

Test [1] addresses T1, FcgRIIa H (human, UniProt P12318).
T1 chain: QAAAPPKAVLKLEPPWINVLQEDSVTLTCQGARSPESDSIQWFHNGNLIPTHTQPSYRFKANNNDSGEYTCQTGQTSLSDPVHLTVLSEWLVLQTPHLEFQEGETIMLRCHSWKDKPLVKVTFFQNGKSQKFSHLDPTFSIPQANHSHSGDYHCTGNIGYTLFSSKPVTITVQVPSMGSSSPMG

Test [2] deals with T2, FcgRIIa R (human, UniProt P12318).
T2 chain: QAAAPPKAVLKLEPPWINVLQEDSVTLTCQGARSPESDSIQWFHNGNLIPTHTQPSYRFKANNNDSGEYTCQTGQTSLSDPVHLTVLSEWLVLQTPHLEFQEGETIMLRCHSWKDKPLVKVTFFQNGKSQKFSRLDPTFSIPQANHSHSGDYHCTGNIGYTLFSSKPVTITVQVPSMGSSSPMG

The target in test [3] is T3, FcgRIIb (human, UniProt P31994).
T3 chain: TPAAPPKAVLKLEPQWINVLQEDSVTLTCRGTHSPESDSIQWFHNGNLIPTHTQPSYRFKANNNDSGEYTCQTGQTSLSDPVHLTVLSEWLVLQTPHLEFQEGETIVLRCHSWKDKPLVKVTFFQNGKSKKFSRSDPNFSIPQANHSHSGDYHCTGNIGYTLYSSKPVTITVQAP

The target of test [4] is T4, FcgRIIIa V (human, UniProt P08637).
T4 sequence (P08637 17-208 F176V): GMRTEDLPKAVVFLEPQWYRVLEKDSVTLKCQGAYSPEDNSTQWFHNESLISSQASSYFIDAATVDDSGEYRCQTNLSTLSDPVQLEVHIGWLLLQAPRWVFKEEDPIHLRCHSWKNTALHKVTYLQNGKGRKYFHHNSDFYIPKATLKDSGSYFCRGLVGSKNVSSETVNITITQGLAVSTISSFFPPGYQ
In test [5] the target is T5, FcgRIIIa F (human, UniProt P08637).
T5 sequence (P08637 17-208): as the sequence (P08637 17-208 F176V) above, with V160F counted along it
For test [6], the target named is T6, FcgRIa (human, UniProt P12314).
T6 chain: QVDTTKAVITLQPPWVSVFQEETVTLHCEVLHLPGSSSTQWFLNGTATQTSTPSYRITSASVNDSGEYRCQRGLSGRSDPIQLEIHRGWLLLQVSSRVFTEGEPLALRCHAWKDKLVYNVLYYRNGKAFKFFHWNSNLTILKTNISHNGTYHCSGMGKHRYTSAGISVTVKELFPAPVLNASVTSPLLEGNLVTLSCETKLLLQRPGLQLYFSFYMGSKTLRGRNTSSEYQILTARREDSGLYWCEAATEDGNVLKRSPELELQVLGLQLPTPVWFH

The target in test [7] is T5, FcgRIIIa F. The source holds these as a separate data set.
Test [8] deals with T6, FcgRIa.
In test [9] the target is T1, FcgRIIa H.
The target of test [10] is T4, FcgRIIIa V. The source holds these as a separate data set.
Test [11] has as its target T2, FcgRIIa R.
The target in test [12] is T3, FcgRIIb.

Like-named read-outs stand apart in the source and are kept apart here.

B1: GpH7-Kn045/GpH7-Hl055/GpL16-k0 (antibody)
chain 1: QVQLVQSGAEVKKPGASVTVSCKASGYTFTDYEMHWIRQPPGEGLEWIGAIDPKTGDTAYSESFQDRVTLTADKSTSTAYMELSSLTSEDTAVYYCTRFYSYTYWGQGTLVTVSSASTKGPSVFPLAPSSKSTSGGTAALGCLVKDYFPEPVTVSWNSGALTSGVHTFPAVLQSSGLYSLSSVVTVPSSSLGTQTYICNVNHKPSNTKVDKKVEPKSCDKTHTCPPCPAPEYYAGPSVFLFPPKPKDTLMISRTPEVTCVVVDVSDEDPEVKFNWYVDGVEVHNAKTKPREEQYNATYRVVSVLTVLHQDWLNGKEYKCKVSNKALPAPIEKTISKAKGQPREPQVCTLPPSRDELTKNQVSLWCLVKGFYPSDIAVEWESNGQPENNYKTTPPVLDSDGSFFLYSKLTVDKSRWQQGNVFSCSVMHEALHNHYTQKSLSLSP
chain 2: QVQLVQSGAEVKKPGASVTVSCKASGYTFTDYEMHWIRQPPGEGLEWIGAIDPKTGDTAYSESFQDRVTLTADKSTSTAYMELSSLTSEDTAVYYCTRFYSYTYWGQGTLVTVSSASTKGPSVFPLAPSSKSTSGGTAALGCLVKDYFPEPVTVSWNSGALTSGVHTFPAVLQSSGLYSLSSVVTVPSSSLGTQTYICNVNHKPSNTKVDKKVEPKSCDKTHTCPPCPAPELLAGPDVFLFPPKPKDTLMISRTPEVTCVVVDVSHEDPEVKFNWYVDGVEVHNAKTKPREELYNSTYRVVSVLTVLHQDWLNGKEYKCKVSNKALPMPEEKTISKAKGQPREPQVYTLPPSRCELTKNQVSLSCAVKGFYPSDIAVEWESNGQPENNYKTTPPVLDSDGSFFLVSKLTVDKSRWQQGNVFSCSVMHEALHNHYTQKSLSLSP
chain 3: DIVMTQSPLSLPVTPGEPASISCQASESLVHSNRNTYLHWYLQKPGQSPQLLIYKVSNRFSGVPDRFSGSGSGTDFTLKISRVEAEDVGVYYCSQNTHVPPTFGQGTKVEIERTVAAPSVFIFPPSDEQLKSGTASVVCLLNNFYPREAKVQWKVDNALQSGNSQESVTEQDSKDSTYSLSSTLTLSKADYEKHKVYACEVTHQGLSSPVTKSFNRGEC
By Kd is commonly meant the constant that tells how readily two partners part at equilibrium. As for B1, the Kd in [1] was found to be 29 nM; in [2] it was 13 nM; in test [3], 240 nM; in [4], 0.72 nM; in [5], 1.6 nM; in test [6], 0.019 nM.

B2: GpH7-Kn033/GpH7-Hl033/GpL16-k0 (antibody)
chain 1: not shown
chain 2: not shown
chain 3: DIVMTQSPLSLPVTPGEPASISCQASESLVHSNRNTYLHWYLQKPGQSPQLLIYKVSNRFSGVPDRFSGSGSGTDFTLKISRVEAEDVGVYYCSQNTHVPPTFGQGTKVEIERTVAAPSVFIFPPSDEQLKSGTASVVCLLNNFYPREAKVQWKVDNALQSGNSQESVTEQDSKDSTYSLSSTLTLSKADYEKHKVYACEVTHQGLSSPVTKSFNRGEC
As for B2, the Kd was 590 nM in test [1]; 740 nM in [2]; 3600 nM in [3]; 220 nM in [4]; 1600 nM in test [5]; 0.069 nM in test [6].

B3: H240-Kn179/H240-Hl089/L73-k0 (antibody)
chain 1: QDQLVQSGAEVKKPGASVKVSCKASGFNIKDTYIQWVRQAPGQGLEWMGRIDPLRKQTKYREKFEGRVTITADTSTNTAYMELSSLRSEDTAVYYCVRSGREFDYWGQGTLVTVSSASTKGPSVFPLAPSSKSTSGGTAALGCLVKDYFPEPVTVSWNSGALTSGVHTFPAVLQSSGLYSLSSVVTVPSSSLGTQTYICNVNHKPSNTKVDKKVEPKSCDKTHTCPPCPAPEYYWGPMVFLFPPKPKDTLMISRTPEVTCVVVDVSDEDPEVKFNWYVDGVEVHNAKTKPREKQYNATYRVVSVLTVLHQDWLNGKEYKCKVSNKDLPAPIEKTISKAKGQPREPQVCTLPPSRDELTKNQVSLWCLVKGFYPSDIAVEWESNGQPENNYKTTPPVLDSDGSFFLYSKLTVDKSRWQQGNVFSCSVMHEALHNHYTQKSLSLSP
chain 2: QDQLVQSGAEVKKPGASVKVSCKASGFNIKDTYIQWVRQAPGQGLEWMGRIDPLRKQTKYREKFEGRVTITADTSTNTAYMELSSLRSEDTAVYYCVRSGREFDYWGQGTLVTVSSASTKGPSVFPLAPSSKSTSGGTAALGCLVKDYFPEPVTVSWNSGALTSGVHTFPAVLQSSGLYSLSSVVTVPSSSLGTQTYICNVNHKPSNTKVDKKVEPKSCDKTHTCPPCPAPELLTGPSVFLFPPKPKDTLMISRTPEVTCVVVDVSHEEPEVKFNWYVDGVEVHNAKTKPREEQYNSTYRVVSVLTVLHQDWLNGKEYKCKVSNDALPKPIEETISKAKGQPREPQVYTLPPSRCELTKNQVSLSCAVKGFYPSDIAVEWESNGQPENNYKTTPPVLDSDGSFFLVSKLTVDKSRWQQGNVFSCSVMHEALHNHYTQKSLSLSP
chain 3: DIQMTQSPSSLSASVGDRVTITCRASQDIHKYIAWYQQKPGQAPRLLIQYTSTLQPGVPSRFSGSGSGTDYTFTISSLQPEDIATYYCLQYEQLRTFGGGTKVEIKRTVAAPSVFIFPPSDEQLKSGTASVVCLLNNFYPREAKVQWKVDNALQSGNSQESVTEQDSKDSTYSLSSTLTLSKADYEKHKVYACEVTHQGLSSPVTKSFNRGEC
In the case of B3, the Kd is 39 nM in [7]; 0.46 nM in [8]; 47 nM in test [9]; 18 nM in [10]; 18 nM in test [11]; 400 nM in [12].

B4: H240-Kn193/H240-Hl204/L73-k0 (antibody)
chain 1: QDQLVQSGAEVKKPGASVKVSCKASGFNIKDTYIQWVRQAPGQGLEWMGRIDPLRKQTKYREKFEGRVTITADTSTNTAYMELSSLRSEDTAVYYCVRSGREFDYWGQGTLVTVSSASTKGPSVFPLAPSSKSTSGGTAALGCLVKDYFPEPVTVSWNSGALTSGVHTFPAVLQSSGLYSLSSVVTVPSSSLGTQTYICNVNHKPSNTKVDKKVEPKSCDKTHTCPPCPAPEYNWGPMVFLFPPKPKDTLMISRTPEVTCVVVDVSDEDPEVKFNWYVDGVEVHNAKTKPRERQYNATYRVVSVLTVLHQDWLNGKEYKCKVSNKDLPAPIEKTISKAKGQPREPQVCTLPPSRDELTKNQVSLWCLVKGFYPSDIAVEWESNGQPENNYKTTPPVLDSDGSFFLYSKLTVDKSRWQQGNVFSCSVMHEALHNHYTQKSLSLSP
chain 2: QDQLVQSGAEVKKPGASVKVSCKASGFNIKDTYIQWVRQAPGQGLEWMGRIDPLRKQTKYREKFEGRVTITADTSTNTAYMELSSLRSEDTAVYYCVRSGREFDYWGQGTLVTVSSASTKGPSVFPLAPSSKSTSGGTAALGCLVKDYFPEPVTVSWNSGALTSGVHTFPAVLQSSGLYSLSSVVTVPSSSLGTQTYICNVNHKPSNTKVDKKVEPKSCDKTHTCPPCPAPELLTGPSVFLFPPKPKDTLMISRTPEVTCVVVDVSHEEPEVKFNWYVDGVEVHNAKTKPREEQYNSTYRVVSVLTVLHQDWLNGKEYKCKVSNDALPKPEEETISKAKGQPREPQVYTLPPSRCELTKNQVSLSCAVKGFYPSDIAVEWESNGQPENNYKTTPPVLDSDGSFFLVSKLTVDKSRWQQGNVFSCSVMHEALHNHYTQKSLSLSP
chain 3: DIQMTQSPSSLSASVGDRVTITCRASQDIHKYIAWYQQKPGQAPRLLIQYTSTLQPGVPSRFSGSGSGTDYTFTISSLQPEDIATYYCLQYEQLRTFGGGTKVEIKRTVAAPSVFIFPPSDEQLKSGTASVVCLLNNFYPREAKVQWKVDNALQSGNSQESVTEQDSKDSTYSLSSTLTLSKADYEKHKVYACEVTHQGLSSPVTKSFNRGEC
Turning to B4, the Kd in [7] is 11 nM; in [8] it was under 0.024 nM; in [9], 35 nM; in test [10], 1.8 nM; in test [11], 16 nM; in test [12], 290 nM.
